From paper PMC9776664, “Crystal structure of the feruloyl esterase from Lentilactobacillus buchneri reveals a novel homodimeric state” (Frontiers in Microbiology, 2022)

Columns and labels:
LbFAE = target: T1, LbFAE (Lentilactobacillus buchneri, UniProt D7RU28); assay: X-ray crystal structure, […] Å, wild-type crystal soaked with FA; type: binding; settings: active site; crystal grown with 0.1 M sodium cacodylate pH 6.5, 0.2 M calcium acetate, PEG 8000
T1 construct: gene faeA; synthetic gene in pNIC28-Bsa4, E. coli BL21(DE3)-T1; Ni-NTA and SEC; homodimer about 60 kDa; monomer model 260 residues; catalytic triad Ser114, Asp206, His233

[1] = substrate: COc1cc(/C=C/C(=O)Oc2ccc([N+](=O)[O-])cc2)ccc1O; assay: spectrophotometric assay, Michaelis-Menten fit; type: biochemical, Lentilactobacillus buchneri; settings: pH 6.5, 40 °C, free enzyme
Source text: spectrophotometric assay, Michaelis-Menten fit on LbFAE

[2] = substrate: COC(=O)/C=C/c1ccc(O)c(OC)c1; assay: HPLC of released ferulic acid, Michaelis-Menten fit; type: biochemical, Lentilactobacillus buchneri; settings: pH 6.5, 40 °C, free enzyme
Source text: HPLC of released ferulic acid, Michaelis-Menten fit on LbFAE

[3] = target: the molecule itself; assay: SEC; HiLoad 16/60 Superdex 200 prep grade, 20 mM Hepes pH 7.5, 150 mM NaCl, 1 ml/min, 4°C; calibrated with ferritin, aldolase, conalbumin, ribonuclease A

| Molecule | X-ray crystal structure, 1.90 Å, wild-type crystal soaked with FA (LbFAE) | Km [1] [mM] | Vmax [1] [µmol/min/mg] | kcat [1] [s⁻¹] | kcat/Km [1] [M⁻¹ s⁻¹] | Km [2] [mM] | Vmax [2] [µmol/min/mg] | kcat [2] [s⁻¹] | kcat/Km [2] [M⁻¹ s⁻¹] | stoichiometry N [3] |
| --- | --- | --- | --- | --- | --- | --- | --- | --- | --- | --- |
| COc1cc(/C=C/C(=O)O)ccc1O [FA, 4-hydroxy-3-methoxy-cinnamic acid] | only FA (i.e., the product) resulted in a complex with LbFAE |  |  |  |  |  |  |  |  |  |
| feruloyl esterase (LbFAE) from Lentilactobacillus buchneri LN 4017, wild type (enzyme, UniProt D7RU28 1-260, looked up, Feruloyl esterase annotated as type-A FAE (faeA) from L. buchneri silage additive strain LN4017 (ATCC PTA-6138); synthetic gene amplified with primers from the ATG start to the stop codon; the monomer structure includes 260 amino acids; Cloned into pNIC28-Bsa4 by LIC; Theoretical mass with His6 tag and TEV site 31.6 kDa; also called faeA; source: E. coli BL21(DE3)-T1, purified (Ni-NTA, SEC)) MIKFVTTEINGLTLRGTAHVPDGEPGQQFPTVLMFHGFGAVRDEGFRLFIQMSNRLMENGIAAVRFDFGCHGESDGEFEDFTFSQELNEGSALIDAVKSMSFVDSTKFSLLGESLGSVAASIVAGKRSTELTSLCMWSPAASFLDEILNDHTLQGKTVDNVEKDGYFDFYGLKLGKAFFDDLKNINIFDNAKKYQGPVKIVYGTNDFIPEKYSHKYMDGYENGELVIVQDGDHGWQSVPSRKRILDETMKFFRKTLLEAK |  | 0.9 | 6.9 | 6.7 | 7540 | 0.065 | 6.57 | 16.3 | 252000 | 2 |
